Experimental data reported in the DeepSol protein solubility set.

Assay: soluble on expression in E. coli; label from the status in PepcDB or PDB records

Sequence	soluble on expression in E. coli
MSLNNMRLFKKSLLAVTVTLATQQAFAAGFQLNAQSATGLGRAFAGDAVIADNAAVMSRNPAAMALFDEMALSLGFETITTMIDVKNVSYRGVLGNSVSVQDTDDVGGTSVAPNIHLIVPVNEQFAWGVNAYSNFGTKTEFSDSYPASEYGGLTDVKSFNLGLAGSYRVNKEWSFGAGLDLIYGQGTMKRIAGTSFPASTIVVNPTTVIPARGTSLLNVDKADGWAVGFNLGTVYEMDENNRFGLSYRYSPEFKAKDDYGQEITLPLPDIAEFSGFHKIENTQFAVHYSVQWIGWSAFDKIEFRNLVTSRSSVGALTKGSYDKMYEWQDGWHYSIGGTYYLNSDWTLRAGYMYDTSAQDSRTSISVPDSDRQWLSAGFTYNIDDKSNVDFGFTYLMGKDVAVSENDAGSKLTATTHADAILLGLQYSRTFEGGSHHHHHH	soluble
MSLNNPYIKMIGAHGTALGDIYGHVTLENFDNTDIYGTEINLVGQINIGETDFNLYGQVFDKSMPVWGETNTLLGLSWDKNYDNTYVQLAFAAHIVNATYKAFDSNFDEQGFNGGYAYLNISHDLSLFDQDFKFVWWQEFYFGRNEQYLELAGDMEDFGFNGQLRANWIINNNWSVGVSYRYAENNLGKKGYHDAFFYSVQYKFEGHHHHHH	not soluble
MSLNPRLFSPHIIRSLLDLDAYKINMMQAIHHFYPDVSVRYELIVRSEEDASGLLDAIRQEIAHLGTLRFSDADIHYLTQHAPHLKATFLQSLRYFHFVPQEQVEMGIVKQGGKQQLRISIRGSWRDTILYETLVMAIVSEVRSRQRWAEVPADLPLKVLKTKLDQLKAEIERRGINNFSLTEMGTRRRFSSQVQRDVLACLKQEIPQWVLGTSNYHFAREFDLKPIGTIAHEWFMGHQALVNERDSQQVALERWLTAFDGMLAIAPTDTLTIDAFLNDFNRHLANAYDGVRHDSGCPFRWGDKMIAHYQQLGIDPTTKLFIFSDGLDFDQALELCEYFAGRVKISFGIGTFLTNDLANWRNAAGVEYRPLSIVIKLAECQGRPVAKISDQPEKAMCEDPIFLANLKRRFNIELDVDALIQELRHQKRSPRHYISAAEGHHHHHH	soluble
MSLNPYKIEVVDHTKLVESNTSINEKEEKSISSVEERANLYEDDEENDEEEDSNEFASEAIPFYSVLGEKDYFYFPSEQIQEHYSKRIPGYFMPNNYYCVNYDFTYNPVKKNVNGDEDDDDDEEEEEGDSGTDRKVKTQEKFRASFIFIDTWALMVGFPIIRNYRAFREQFNWLSKTLYESAKKSDWIFVVGHHPLISSGRRSDNYSYEEHSFHDIIRDFLFNYHVDAYFSAHDHLMEYIKFGSVDLFINGSSSRVLFDNSSMGRGYFGKIIGKLYPLSCYVLKTIHTGLKPKGCNINRYSKWYNKSDIGFSTHKLTKDELVTQFISSRTGKPLSEKIITKNKKHEREGHHHHHH	soluble
MSLNQSFTQFGDGYASTGTLNIGDVLDIMIWEAPPAVLFGGGLSSMGSGSAQQTKLPEQLVTARGTVSVPFVGDISVVGKTPGQVQEIIKGRLKKMANQPQVMVRLVQNNAANVSVIRAGNSVRMPLTAAGERVLDAVAAVGGSTANVQDTNVQLTRGNVVRTVALEDLVANPRQNILLRRGDVVTMITNPYTFTSMGAVGRTQEIGFSARGLSLSEAIGRMGGLQDRRSDARGVFVFRYTPLVELPAERQDKWIRQGYGSEAEIPTVYRVNMADAHSLFSMQRFPVKNKDVLYVSNAPLAEVQKFLSFVFSPVTSGANSINNLTNEGHHHHHH	not soluble
MSLNTRRLLDLSVTLDNNPYTDPPPLLPKIDYMDHQQGWPEMAAMFPGLRKEDLPGDESWAAERLQITTHSGTHMDAPWHYASTTDGGKPAFGIDELPLEWCLQPGVKLDFRHLPDGHVVTAAQVEAELARIGHELQPLDIVLVNTRAGSLFGQPGYLEAGVGMGREATLYLLERGVRVVGTDAWSWDAPFKFTRERFSETGDASIIWEGHKAGRDIGYGQMEKLANLEQLPADGFLVSCFPYKIRHASAGFVRAVAIFDLEHHHHHH	soluble
MSLNVDVLLKNVWLYQTVTQTFVQRNVAIKNDKFYYIYEEENVNLQPQKTINAENQWMIPGLIDAHMHIESSMTTPTIFSKAVVRYGVTTVIADAHEMANVFGLEGLKAFMAAETELDIFHAIPSSVPSTTPELETTGGIIGLAEVAELLKEPKVICLGEAMNFKGISYEPDSLIRQIIDLCQKQRPTMPLEGHCPKIEDQELADFLYSGITSDHTHQFPKTLKEKIEAGVFIQFQNKSITPENIQVIVDNDFYNYASIITDDVMADDLLKGHLNENVKKAVHAGLPIEKAIYMATYTPAKRMGLHDRGEIAPGKKADFLLLNDLESFDINTVYKSGKVVFEKGEPFHYPEKIEEFPATYQQTIQCKKLTEEDLLLKVATTKETVRCNVIQKQEIGTFTERITKEIPVENGLLQWQKANCALLIVMERYGKNGNISFSLMDQPLSEKGAIATTWAHDHHNLMVMGNTIEDILLAQNELLAMQGGYLVASDQQVMATCPLPIGGILSQAPIEQLGASLQKVRQAMQALGYQNMNEIMSFSTLSLPVSPAIKVTDFGMMDTKSQRFYPLVFPEDGVLLHENTHEGHHHHHH	soluble
MSLNVLIVDDEKLIRQGIINFFDWEKEGFQIVGEAANGKDALELISKNEPHIVMTDIVMPVMDGIDLVKRVKRDFPEVEIIVLSSFEEFEYVRSTFHSGVADYILKPRLNEKDLLKTLSEVRGKIPALAKVDSPSRAVPSISDQFEKILNGHAPLSQDDTGEKRFPKGPYRLAVITPIEEQDVHRRKQHLDEREQAITGIDVVCSIEKEGDAVLLLPLEGDVSSSMKQALDDFLKGRDAHALLVSSPFSSIYEAKEVYERDIPLLKQYSFYLPDTPLLIYDELPKTNEGVKTFDLNHFIELCKGRKFAIGFQYLLDYVEYMSTRYTQTSTECKAFLGNIIFNMIVLMGNLKYDVKELEREKYHYFATINAAKNVREATDCFYQFLEVTKQIISVYSNEGSSSIQKMLAYIEEHHSEPLSLSQLANYFHFNPSYLSAYFRQHHDEGFSEYLNKVRIRKAKEWLKSSTIPISEIYALVGYSDHSYFCKVFKKRTGMPPSRYRRENAEGHHHHHH	soluble
MSLNVMYKNSCPNCGGDISGDRLLNGLPCEACLPYINGIDDVDHISKVKTLYNILLNNDKIKNYWNLYYNITTFETVFKYFRDKTGYEPWSLQKLWLRRLASNQSFTMSAPTGLGKTTTLMTYSVFIGQDVVYIVPTKSLMEQVCKRLEKLGAQVSCGKIDQKKVSVITISYLNKNADSIVSLKPNFVVIDDADAVIKSGKTTDRLVSLLGIPKDVYESAIQLIRLRNKYYFSNEYTEEVKEKIRELELKIAEFKDKISQLVIASATIRPKGIKQKALRLLTGFEPSSIQLYARNIIDAYTENLDLSIVKELGSGGLILVSKEYGRSKLNEIKKYVEDLGFNAKLAISGRKFLDDFSQGKVDILVGSASYYGVAVRGIDEPKRLKYVIYYGVPKIRAKLFDALSNPFTLLRVGKLIGIDFSKLQNKILILNPSEVQLLKFSIIKGEGHHHHHH	not soluble
MSLNVTVHGVPVGSLTREEARAKIESHFAPFLAQPVMLTYSGRTWTPTLAELGAELAIDEAVDKAVAVGRGHDLFTNLQQIGAVWQRGLELPLHLSIDQDALQRYLLDRVAEVERPAVDARLVLHGTTVRVEPSAFGRQVLVNDTLHEIVAALQDLNPDTIALRTRTLEPALRDDAAIVAQDQIAALLAGPITLLIDDRPFVWSLDELARMVRVERIPDPAGDRLVVSIDHELVRARIREIGDATEVKGTYPRLNWNDGRLEIFQEGKPGRRIDEDQVFAAVLDALTKPAEQRTVTVAFREIPPPITAANLDQLGITTLIGVGRSDFTGSAAYRVTNIQAGMRLLHGVLIAPGEEFSFNQTIGRIDRSNGFVEGYAIIQNRTQLEWGGGICQDSTTMFRAAFWAGLPITERWGHSFYISWYDRYAFGPYGDGPGMDATIFTGGPDLKFLNDTGGWLLIQTLVDTHRHLAEVRLYGPDTGRKVLLEGPIITNRTEGHHHHHH	soluble
MSLNWKQLISAKRFGMEEFHEERQENRSEFQRDYDRLIFSAPFRRLQNKTQVFPLPGSIFVHNRLTHSLEVSCVGRSLGNDVAKAILERQPELESSFLPEIGSIVSAACLAHDLGNPPFGHSGERAISTFFSEGKGQRLQEKQPDGEQLSPMEWEDLTHFEGNANAFRILTHQFEGRRRGGFVLTYSTLASIVKYPFSSSLAGKKSKFGFFVSEEESYRKIATELGLIQLSEQPLKYARHPLVYLVEAADDICYQMMDIEDAHKLKIITTDETKELLMAFFSEDRQSRLRSTFQIVNDINEQIAYLRSSVIGLLVRECTRVFLEHEQEILAGTFEGALIKHIAEGPAAAYNHCAEISLKRIYRSQDVLDIELAGFRIISTLLELMVDAVTLPGKEKAYSELLTNRVSDQYNIKSPVLYERIQAVLDYISGMTDVFALDLYRKINGNSLPAEGHHHHHH	soluble
MSLNYRHAFHAGNFADLHKHAILLAMLSALQEKSPALAVIDTHAGAGGYDLAGEMARRSGEAQAGIFRLKAAADAPAVFQPLLNAITQMNGGKDGDLYPGSPRLMARALRGADRYVGCELRDDDADLLRKTLAPCANARALQADGFDTAVKDAGKGGRAFIVIDPPFERPDDYDRIVATTRAVLARAPDAALAIWLPIKDLETFDAFLRAMETVTSDLLVAELRLRPLTDPMKMNGCAMVMIGAPPSVEDAAVAAGDWIATRLGEPGGRSRVWRTEGHHHHHH	soluble
MSLPAPQDPRNLPIRQQMEALIRRKQAEITQGLESIDTVKFHADTWTRGNDGGGGTSMVIQDGTTFEKGGVNVSVVYGQLSPAAVSAMKADHKNLRLPEDPKTGLPVTDGVKFFACGLSMVIHPVNPHAPTTHLNYRYFETWNQDGTPQTWWFGGGADLTPSYLYEEDGQLFHQLHKDALDKHDTALYPRFKKWCDEYFYITHRKETRGIGGIFFDDYDERDPQEILNMVEDCFDAFLPSYLTIVKRRKDMPYTKEEQQWQAIRRGRYVEFNLIYDRGTQFGLRTPGSRVESILMSLPEHASWLYNHHPAPGSREAKLLEVTTKPREWVKEGHHHHHH	soluble
MSLPITLDKKLPAVDILKSENIFVMDDKRAIHQDIRPMSILILNLMPTKVATETQLLRLLANTPLQLSVDFLYMTSHHSKTTQAEHMKTFYKTFKDIKDNYYDGLIITGAPVETMPFEKVDYWEELCQVFQWSKTHVYSTLHLCWGAQAGLYYRYSVDKVQMTDKLSGIYLQKVNEQLSPLMRGFDDCFLSPHSRYTEVLLKDINNKTNLEILASGEKVGLSILASRDMREVYSFGHLEYDRETLDNEYKRDLKAGKSPKIPENYYQDDDVTTHPIMRWNLAAATFFSNWINYAVYQETPYRLEELEKDISFYGYLEGHHHHHH	soluble
MSLPKEEILTGPAVIKIVSTYMGPEHVELVQKALTYAEKAHEGQVRQSGEPYIIHPIQVAGILAELHMDPHTVATGFLHDVVEDTDVTLDDLKEEFGEDIAMLVDGVTKLGKIKYKSHEEQLAENHRKMLLAMAQDLRVIMVKLADRLHNMRTLKHLREDKQRRIAQETLEIYAPLAHRLGISRIKWELEDTALRYINPNQYYRIVNLMQSKRDEREAYVAEAVEDIRLATEDLEIYAEIYGRPKHIYSIYRKMKDQKKQFNEIYDLLAIRVIVDSIKDCYAVLGAIHTRWTPMPGRFKDYIAMPKANMYQSIHTTVIGPKGNPVEVQIRTHEMHQIAEFGVAAHWAYKEGKAEKIETDELTKQVDWFHEIIELQDESYDASEFMQGVKEDIFSDKVYVFTPSGDVTELPKGSGPLDFAYSIHTEIGNKTTGAKVNGKMVQLDYVLKNGDIIEVLTSPNSFGPSRDWLKMVKTSKAKNKIKRFFKEQDREDNIIKGHDAVIKYMTEIGFTPKEFLTKNKMAEVLDKFKFQTEDDLFAAVGYGEVSAQVVCNRLTEKERREQELERQRQEAEELLNQPAKKESEKMKVRHEGGIVIQGVDNLLIRLSRCCNPVPGDEIVGYITKGRGVSIHRADCPNVQHQEELAQRLIEVEWEDTEHSRKEYAADLEIYGYDRSGLLSDVLQVISSMTKNLVGVEARPSKDKMAQIHVTVKIQNLSHLKTIVDKIKSVPDVYSVRRTNGEGHHHHHH	soluble
